Test results taken from patent US12516145B2 (priority 2019, dated 2026).
Each block holds one molecule with its values, some of them ahead of it.

Tests used:
trypsin [1] = assay: Trypsin-induced cleavage (proteolytic resistance) by RP-HPLC; type: in vitro ADME; conditions: isolated enzyme trypsin; trypsin 0.1 μM, 200 μM peptide, PBS pH 7.4, 37 °C; read-out: peptide cleaved by trypsin within 1 h
Description: For protease-triggered cleavage experiments, the molar ratio of trypsin to peptide was set to 1:2000. Moreover, the temperature was set to 37° C. to match the body temperature. For example, poly[(KLAAm10-co-DMA30)-b-(DAAm70-co-DMA30)](NP1, 0.9 mg, 0.2 μmol with respect to peptides, 2000 equiv.) was dissolved in 1 ml of DPBS solution. […] During the cleavage, aliquots were taken for HPLC analysis at predetermined time points.

HeLa cells [2] = assay: CellTilter-Blue cell viability assay of KLA based materials (Example 1); set-up: species or system human; conditions: even at 100 μM with respect to peptide, 72 hours, 37 °C
Description: Hela cells were purchased from ATCC. Cells were cultured at 37° C. under 5% CO2 in phenol-red containing Dulbecco's Modified Eagle Medium (DMEM; Gibco Life Tech., cat. #11960-044) supplemented with 10% fetal bovine serum (Omega Scientific, cat. #11140-050), sodium pyruvate (Gibco Life Tech., cat. #35050-061), L-glutamine (Gibco Life Tech., cat. #35050-061), and the antibiotics penicillin/streptomycin (Corning Cellgro, cat. #30-002-C1). Cells were grown in T75 culture flasks and subcultured at ˜75-80% confluency.
The cytotoxicity of materials was assessed using the CellTilter-Blue assay. HeLa cells were plated at a density of 5000 cells per well in a 96 well plate 18 hours prior to treatment. Materials were dissolved in DPBS at the desired concentration and added to the wells along with a 10% DMSO positive control. Cells were incubated for 72 hours at 37° C. Note that the concentration of all the materials is with respect to the peptide concentration to ensure that all peptides and polymers are fairly compared with respect to their therapeutic components. The media was removed and 80 μL of new media without phenol red was added followed by adding 20 μL of CellTilter-Blue reagent. The cells were incubated for 3 hours at 37° C. The fluorescence was measured at 560 nm excitation and 590 nm emission wavelength.

[3] = cited from earlier work
[4] = amine groups; cited from earlier work
thermolysin [5] = assay: thermolysin in DPBS solution, molar ratio of thermolysin to peptide 1:300; conditions: 55° C.
trypsin [6] = assay: trypsin (0.1 μM) in PBS buffer (pH=7.4), molar ratio of trypsin to peptide 1:2000; conditions: 37° C.
Zeta potential analysis = type: physicochemical; conditions: room temperature
Description: (§2) Dynamic Light Scattering (DLS) and Zeta Potential Analysis: DLS and zeta potential analyses were conducted at room temperature on a Zetasizer Nano-ZS (Malvern). The laser for DLS was at a wavelength of 633 nm.

[7] = Transmission electron microscopy (particle size); type: physicochemical; conditions: for Rcore: estimated by TEM analysis
Description: Dry-State Transmission Electron Microscopy (TEM): Twenty microliters of samples were applied onto a 400 mesh carbon grids (Ted Pella, INC.). The grids were observed on a Hitachi HT 7700 microscope operating at 120 kV. The images were recorded with a slow-scan charge-coupled device (CCD) camera (Veleta 2k×2k).

[8] = Dynamic light scattering (hydrodynamic size); type: physicochemical; conditions: for Dh: hydrodynamic diameter by DLS, photo-PISA at solids content of 15 wt. %; for Rh: hydrodynamic radius by DLS; for hydrodynamic diameter / size by DLS: in water (DIW)
Description: as §2

thermolysin [9] = molecular target: T1, thermolysin (Bacillus thermoproteolyticus, UniProt P00800); conditions: for morphology change of micelles after treatment with thermolysin: TEM and DLS, spherical micelles before treatment
T1 sequence (P00800 233-548): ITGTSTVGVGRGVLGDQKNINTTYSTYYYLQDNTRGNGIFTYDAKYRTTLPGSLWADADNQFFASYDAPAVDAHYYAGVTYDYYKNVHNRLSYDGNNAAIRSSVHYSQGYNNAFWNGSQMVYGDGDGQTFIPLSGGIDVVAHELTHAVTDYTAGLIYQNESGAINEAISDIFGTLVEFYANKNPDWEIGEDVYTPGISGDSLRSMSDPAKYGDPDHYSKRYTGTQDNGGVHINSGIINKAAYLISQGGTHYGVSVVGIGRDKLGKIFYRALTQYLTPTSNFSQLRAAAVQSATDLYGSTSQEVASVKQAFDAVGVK
Description: Transmission Electron Microscope (TEM): Twenty microliters of sample were applied onto a 400 mesh carbon grids (Ted Pella, INC.). The grids were observed on a Hitachi HT 7700 microscope operating at 120 kV. The images were recorded with a slow-scan charge-coupled device (CCD) camera (Veleta 2k×2k).
Dynamic Light Scattering (DLS): DLS analysis was conducted at room temperature on a Zetasizer Nano-ZS (Malvern). The laser for DLS was at a wavelength of 633 nm.
(§1) For enzyme-triggered cleavage experiments, the molar ratio of thermolysin to peptide was set to 1:300. Moreover, the temperature was set to 55° C. to achieve the optimal activity of thermolysin. For example, poly(PepAm21-co-DMA24) (P4, 1 mg, 0.87 μmol with respect to peptides, 300 equiv.) was dissolved in 1 ml of DPBS solution. Then thermolysin (0.1 mg, 2.9 nmol, 1 equiv.) was added into the polymer solution which was stirred in a preheated oil bath at 55° C. In the case of control experiments which involved using deactivated thermolysin, EDTA (100 equiv. to thermolysin) was utilized to capture the zinc and calcium ions, resulting in denaturing of thermolysin.

HeLa cells [10] = assay: Flow cytometry for uptake ability in HeLa cells (Example 1); type: cell-based, human; conditions: rhodamine B-labeled, 0.25 μM with respect to dye, 24 hours
Description: Flow Cytometry: The cell uptake study was analyzed via flow cytometry using a BD FacsAria Ilu 4-Laser flow cytometer (Becton Dickinson Inc., USA). Mean fluorescence intensity and PE-A-histogram data was prepared for presentation using FlowJo v10.
For cellular uptake measurements, HeLa cells were plated in 12-well plates at a density of 1,000,000 per well and incubated for 24 hours in a 5% CO2 atmosphere at 37° C. 500 μL of 0.25 μM (with respect to rhodamine) KLA peptide, poly(KLAAm25-co-DMA75), poly(KLAAm25-co-DMA25), and poly(KLAAm10) in 10% FBS DMEM media without phenol red were incubated with the cells for 24 hours respectively. After triple washing with DPBS, 500 μL of 0.25% Trypsin-EDTA was added to each well for 10 min at 37° C. Cells were fixed with a 4% paraformaldehyde solution for 15 min at room temperature.

thermolysin [11] = molecular target: T1, thermolysin; conditions: thermolysin 1/300 equiv. to peptides, 55 °C, DPBS, HPLC
Description: Analytical High-Performance Liquid Chromatography (HPLC): Analytical HPLC analysis of peptides was performed on a Jupiter 4μ Proteo 90A Phenomenex column (150×4.60 mm) using a Hitachi-Elite LaChrom L-2130 pump equipped with UV-Vis detector (Hitachi-Elite LaChrom L2420).
as §1

[12] = tested on: mitochondrial membrane potential of HeLa cells; assay: Mitochondria membrane potential of HeLa cells with JC-1 probe; type: cell-based, human; conditions: 2 μM JC-1, excitation 488 nm, NP5 even after 30 min incubation
Description: HeLa cells were plated in 4-well, glass bottom dishes at 30,000 cells per well in 500 μL medium. […] The cells were stained with 2 μM of JC-1 at 37° C. for 15 minutes, washed with PBS to remove any membrane-bound, non-internalized fluorophores, and returned to complete medium. For the positive control group, the cells were incubated with 50 μM CCCP and 2 μM of JC-1 probe in DPBS solution simultaneously for 15 min. Before the confocal observation, 1 drop of Hoechst 33342 dye was added to stain the nuclei. Confocal microscope was employed to observe the fluorescence of JC-1 monomer, J-aggregates and Hoechst dye.

HeLa cells [13] = assay: CellTiter-Blue cell viability assay of nanoparticles (Example 2); type: cell-based, human; conditions: 72 h; for cytotoxicity in HeLa cells: 37 °C, concentration with respect to total KLA peptide content
Description: Fluorescence Measurement: CellTiter-Blue® fluorescence measurements were recorded using a Perkin Elmer EnSpire multimode Plate Reader.
HeLa cells were grown in Dulbecco's modified Eagle medium (DMEM) supplemented with 10% fetal bovine serum (FBS), 1% penicillin-streptomycin. Cells were maintained at 37° C. and 5% CO2 with a relative humidity of 95%. HeLa cells were plated in 96-well plates at a density of 5000 per well and then left to attach for 24 h. Subsequently, the cells were treated with the polymers of various concentrations for the desired time followed by washing 3 times with PBS. Then CellTiter-Blue® at 10% (v/v) in complete media was added to each well and incubated for 2 h to allow the live cells to convert resazurin to fluorescent resorufin. The fluorescent signal (Excitation wavelength: 560 nm; Emission wavelength: 600 nm) was then analyzed by a plate reader. Three replicates were performed for each independent sample. 10% DMSO was used as a positive control and untreated cells in complete medium as a negative control. Viability is reported as a percentage of untreated cells.

Molecule: CC(C)C[C@H](NC(=O)[C@H](CCCCN)NC(=O)[C@H](C)NC(=O)[C@H](CC(C)C)NC(=O)[C@H](CCCCN)NC(=O)[C@H](CCCCN)NC(=O)[C@H](C)NC(=O)[C@H](CC(C)C)NC(=O)[C@H](CCCCN)NC(=O)[C@H](C)NC(=O)[C@H](CC(C)C)NC(=O)[C@@H](N)CCCCN)C(=O)N[C@@H](C)C(=O)N[C@@H](CCCCN)C(N)=O [KLA peptide, KLAKLAKKLAKLAK, reference compound]
metabolised at 1 h, 200 μM (trypsin [1]): 100%
cytotoxicity to HeLa cells (HeLa cells [2]): did not exhibit cytotoxicity

Molecule: C=CC(=O)NCCCCCC(=O)N[C@@H](CCCCN)C(=O)N[C@@H](CC(C)C)C(=O)N[C@@H](C)C(=O)N[C@@H](CCCCN)C(=O)N[C@@H](CC(C)C)C(=O)N[C@@H](C)C(=O)N[C@@H](CCCCN)C(=O)N[C@@H](CCCCN)C(=O)N[C@@H](CC(C)C)C(=O)N[C@@H](C)C(=O)N[C@@H](CCCCN)C(=O)N[C@@H](CC(C)C)C(=O)N[C@@H](C)C(=O)N[C@@H](CCCCN)C(N)=O [KLAAm]
metabolised at 1 h, 200 μM (trypsin [1]): 100%
maximum concentration in water [3]: about 100 mM
pKa [4]: 9
cytotoxicity to HeLa cells (HeLa cells [2]): did not exhibit cytotoxicity

cleaved bond (thermolysin [5]): glycine (G)-leucine (L)
Molecule: GPLGLAGG

fragment found (trypsin [6]): LAK
Molecule: KLAKLAKKLAKLAK

Molecule: NP2: KLA peptide brush polymer nanoparticle: shell KLAAm 10, DMA 30; core DAAm 140, DMA 60 (KLAKLAKKLAKLAK)
Zeta potential (Zeta potential analysis): 56 mV
Rcore [7]: 28 nm
Dh [8]: 62 nm
Rh [8]: 31 nm

Molecule: PMMA90-b-poly(PepAm9-co-DMA30) [P7]
morphology change of micelles after treatment with thermolysin (thermolysin [9]): transition from spherical micelle to fused worm micelles

Molecule: PMMA90-b-poly(PepAm21-co-DMA63) [P8]
morphology change of micelles after treatment with thermolysin (thermolysin [9]): phase transition into a worm-like phase
change in particle diameter with deactivated thermolysin (thermolysin [9]; thermolysin pretreated with ethylenediaminetetraacetic acid, same cleavage conditions, DLS): no change in diameter
diameter / average size by TEM ([7]; dry-state TEM): 24 nm
hydrodynamic diameter / size by DLS [8]: 28 nm

Molecule: PnBA200-b-poly(PepAm36-co-DMA123) [P9]
morphology change of micelles after treatment with thermolysin (thermolysin [9]): transition from spherical micelle to a mixture of micelles and fiber structure

Molecule: poly(KLAAm10)
cellular uptake by flow cytometry (HeLa cells [10]): clearly outperformed more sparsely grafted polypeptide brushes

Molecule: poly(KLAAm25-co-DMA25)
cellular uptake by flow cytometry (HeLa cells [10]): clearly outperformed more sparsely grafted polypeptide brushes

Molecule: poly(PepAm6-co-DMA7) [P1]
time within which thermolysin-induced peptide cleavage was complete (thermolysin [11]): ≤ 1 h

Molecule: poly(PepAm21-co-DMA71) [P4]
time within which thermolysin-induced peptide cleavage was complete (thermolysin [11]): ≤ 1 h
hydrodynamic diameter / size by DLS [8]: < 10 nm

Molecule: poly[(KLAAm10-co-DMA10)-b-(DAAm140-co-DMA60)] (KLAKLAKKLAKLAK) [NP4, KLA peptide brush polymer nanoparticle]
Dh [8]: 64 nm

Molecule: poly[(KLAAm10-co-DMA10)-b-(DAAm280-co-DMA120)] (KLAKLAKKLAKLAK) [NP5, KLA peptide brush polymer nanoparticle]
red fluorescence of JC-1 J-aggregates (mitochondrial membrane potential) [12]: almost no red emission
cytotoxicity in HeLa cells (HeLa cells [13]): dose-dependent cytotoxicity
toxicity compared between nanoparticles (HeLa cells [13]; HeLa cells): significantly higher than NP3
Dh [8]: 92 nm

Molecule: poly[(KLAAm10-co-DMA30)-b-(DAAm70-co-DMA30)] (KLAKLAKKLAKLAK) [NP1, KLA peptide brush polymer nanoparticle]
Zeta potential (Zeta potential analysis): 47 mV
Rcore [7]: 13 nm
Dh [8]: 36 nm
Rh [8]: 18 nm

Molecule: poly[(KLAAm10-co-DMA30)-b-(DAAm280-co-DMA120)] (KLAKLAKKLAKLAK) [NP3, KLA peptide brush polymer nanoparticle]
Zeta potential (Zeta potential analysis): 48 mV
cytotoxicity in HeLa cells (HeLa cells [13]): dose-dependent cytotoxicity
Rcore [7]: 46 nm
Dh [8]: 105 nm
Rh [8]: 52 nm
